Substitutions are numbered along the chain they refer to.
T1: human BCMA on cells (NCI-H929, NCI-H929 CD38 KO, MOLP-8) (human, UniProt Q02223 1-184)
T1 construct: whole, on cells; endogenous BCMA of myeloma cell lines
T1 sequence (looked up): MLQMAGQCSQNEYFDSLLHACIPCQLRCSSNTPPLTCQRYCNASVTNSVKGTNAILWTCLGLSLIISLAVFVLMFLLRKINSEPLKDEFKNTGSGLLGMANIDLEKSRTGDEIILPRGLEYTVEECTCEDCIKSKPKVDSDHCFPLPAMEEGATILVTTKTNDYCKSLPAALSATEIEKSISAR

T2: recombinant human BCMA protein (Acrobiosystems BCA-H522y) (human, UniProt Q02223 1-54)
T2 construct: bought protein
T2 sequence (looked up): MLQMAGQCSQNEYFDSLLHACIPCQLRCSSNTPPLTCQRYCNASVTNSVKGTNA

T3: Biotinylated Human BCMA/TNFRSF17 Protein, His, Avitag (Acrobiosystems BCA-H82E4) (human, UniProt Q02223 1-54, biotinylated)
T3 construct: bought protein; also called biotinylated recombinant human BCMA protein; hBCMA
T3 sequence (looked up): T2 sequence (looked up)

B1: Anti-BCMA-E6-PP02-D2 FAB (Fab, V domains shown)
VH: EVQLLESGGGLVQPGGSLRLSCAASGFTFSYYAMTWVRQAPGKGLEWVSTISQQNEQTKYADSVKGRFTISRDNSKNTLYLQMNSLRAEDTAVYYCARSPYSYLHGYYGFDYWGQGTLVTVSS
VL: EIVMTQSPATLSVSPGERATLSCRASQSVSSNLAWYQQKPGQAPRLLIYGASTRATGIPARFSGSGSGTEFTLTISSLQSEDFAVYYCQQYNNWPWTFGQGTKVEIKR
notes: Fab
B2: Anti-BCMA-E6-PP02-F7 FAB (Fab, V domains shown)
VH: B1 VH with S52G, Q54R, N55G, E56F
VL: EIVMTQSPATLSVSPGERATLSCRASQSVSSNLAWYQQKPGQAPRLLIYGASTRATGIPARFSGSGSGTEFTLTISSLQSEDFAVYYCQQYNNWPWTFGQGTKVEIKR
notes: Fab
B3: Anti-BCMA-E6-PP02-G7 FAB (Fab, V domains shown)
VH: B1 VH with N55W, E56D, Q57V
VL: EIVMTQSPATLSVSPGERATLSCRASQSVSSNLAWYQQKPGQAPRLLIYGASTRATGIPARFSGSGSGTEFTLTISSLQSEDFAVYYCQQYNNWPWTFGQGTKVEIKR
notes: Fab
B4: Anti-BCMA-E6-PP02-E6 FAB (Fab, V domains shown)
VH: B1 VH with Q54A, N55G, E56R, Q57D, T58F
VL: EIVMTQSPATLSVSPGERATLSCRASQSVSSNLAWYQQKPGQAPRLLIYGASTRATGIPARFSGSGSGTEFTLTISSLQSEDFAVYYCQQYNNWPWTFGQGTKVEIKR
notes: Fab; also called anti-BCMA-E6-E6; E6-E6
B5: Anti-BCMA-E6-PP02-B4 FAB (Fab, V domains shown)
VH: B1 VH with Q54P, N55G, E56F, Q57D, T58A
VL: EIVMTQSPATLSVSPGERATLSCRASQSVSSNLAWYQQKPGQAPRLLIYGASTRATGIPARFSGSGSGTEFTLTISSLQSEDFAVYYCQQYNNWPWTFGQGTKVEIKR
notes: Fab
B6: Anti-BCMA-E6-PP02-B1 FAB (Fab, V domains shown)
VH: B1 VH with I51V, Q54A, N55G, E56Y, Q57D
VL: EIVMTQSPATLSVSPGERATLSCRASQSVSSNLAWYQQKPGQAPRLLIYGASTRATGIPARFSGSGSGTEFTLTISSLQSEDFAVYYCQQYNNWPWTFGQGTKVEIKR
notes: Fab; also called anti-BCMA-E6-B1; E6-B1
B7: Anti-BCMA-E6-PP02-G6 FAB (Fab, V domains shown)
VH: B1 VH with S52A, Q54R, N55G, E56G
VL: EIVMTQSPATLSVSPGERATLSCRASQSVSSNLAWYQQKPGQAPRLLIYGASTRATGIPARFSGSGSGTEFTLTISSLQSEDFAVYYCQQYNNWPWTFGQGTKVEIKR
notes: Fab; also called anti-BCMA-E6-G6; E6-G6
B8: Anti-BCMA-E6-PP02-C7 FAB (Fab, V domains shown)
VH: B1 VH with Q54S, N55G, E56L, Q57V, T58P
VL: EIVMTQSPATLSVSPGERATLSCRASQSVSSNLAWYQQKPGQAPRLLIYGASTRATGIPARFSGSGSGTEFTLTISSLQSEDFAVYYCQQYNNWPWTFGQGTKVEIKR
notes: Fab
B9: Anti-BCMA-E6-PP02-A3 FAB (Fab, V domains shown)
VH: B1 VH with Q53S, E56D, Q57I
VL: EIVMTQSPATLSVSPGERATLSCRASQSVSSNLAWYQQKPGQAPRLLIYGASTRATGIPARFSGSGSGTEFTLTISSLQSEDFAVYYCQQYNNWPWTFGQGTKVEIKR
notes: Fab
B10: Anti-BCMA-E6-PP02-G2 FAB (Fab, V domains shown)
VH: EVQLLESGGGLVQPGGSLRLSCAASGFTFSYYAMTWVRQAPGKGLEWVGTISQSVGQVVKYADSVKGRFTISRDNSKNTLYLQMNSLRAEDTAVYYCARSPYSYLHGYYGFDYWGQGTLVTVSS
VL: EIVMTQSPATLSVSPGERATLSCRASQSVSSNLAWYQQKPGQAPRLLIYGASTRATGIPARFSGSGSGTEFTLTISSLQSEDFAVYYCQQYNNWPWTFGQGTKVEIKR
notes: Fab
B11: anti-BCMA-PP02-A3 FAB (Fab, V domains shown)
VH: EVQLLESGGGLVQPGGSLRLSCAASGFTFSQYAMSWVRQAPGKGLEWVSIISQDGGVTVYADSVKGRFTISRDNSKNTLYLQMNSLRAEDTAVYYCARSPYGGGSYIPHDSWGQGTLVTVSS
VL: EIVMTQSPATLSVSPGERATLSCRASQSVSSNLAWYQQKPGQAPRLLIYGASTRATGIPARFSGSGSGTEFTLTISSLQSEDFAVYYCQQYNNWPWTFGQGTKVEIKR
notes: Fab
B12: anti-BCMA-PP02-F1 FAB (Fab, V domains shown)
VH: EVQLLESGGGLVQPGGSLRLSCAASGFSFSEYAMSWVRQAPGKGLEWVSALSLSGDVTSYADSVKGRFTISRDNSKNTLYLQMNSLRAEDTAVYYCARSPYSRVGDSYYYDYIGFDIWGQGTLVTVSS
VL: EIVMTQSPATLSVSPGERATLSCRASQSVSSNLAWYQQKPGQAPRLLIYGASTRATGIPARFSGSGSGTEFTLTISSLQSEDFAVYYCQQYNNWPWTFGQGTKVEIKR
notes: Fab
B13: anti-BCMA-UCP01-A10 FAB (Fab, V domains shown)
VH: QVQLVQSGAEVKKPGSSVKVSCKASGYVFSDHIISWVRQAPGQGLEWMGGIIPHGGAPTYAQKFQGRVTITADESTSTAYMELSSLRSEDTAVYYCARDLFDYYPQGFDYWGQGTLVTVSS
VL: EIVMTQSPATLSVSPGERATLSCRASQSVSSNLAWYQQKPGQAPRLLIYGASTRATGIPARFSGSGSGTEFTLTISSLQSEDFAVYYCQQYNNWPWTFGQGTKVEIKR
notes: Fab
B14: anti-BCMA-PP02-E6 FAB (Fab, V domains shown)
VH: B1 VH with Q54N, N55G, E56G
VL: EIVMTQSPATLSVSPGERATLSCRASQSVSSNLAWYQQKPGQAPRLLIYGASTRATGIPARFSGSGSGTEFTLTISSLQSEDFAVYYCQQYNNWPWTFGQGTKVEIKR
notes: Fab; also called anti-BCMA-E6; anti-BCMA-E6 Fab
B15: anti-BCMA-PP02-D3 FAB (Fab, V domains shown)
VH: EVQLVESGGGLIQPGGSLRLSCAASGFIFSHYEMNWVRQAPGKGLEWVSAIGQGGNTVYADSVKGRFTISRDNSKNTLYLQMNSLRAEDTAVYYCARVPYSYSGYSGADIWGQGTLVTVSS
VL: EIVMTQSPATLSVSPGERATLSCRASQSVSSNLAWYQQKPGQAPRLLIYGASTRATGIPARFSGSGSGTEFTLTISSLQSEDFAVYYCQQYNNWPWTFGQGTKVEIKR
notes: Fab; also called anti-BCMA-D3; anti-BCMA-D3 Fab
B16: anti-BCMA-UCP01-E9 FAB (Fab, V domains shown)
VH: EVQLLESGGGLVQPGGSLRLSCAASGFTFSNYAMSWVRQAPGKGLEWVSVISERGAVTVYADSVKGRFTISRDNSKNTLYLQMNSLRAEDTAVYYCARSPYGYSSGVEGYFGFDVWGQGTLVTVSS
VL: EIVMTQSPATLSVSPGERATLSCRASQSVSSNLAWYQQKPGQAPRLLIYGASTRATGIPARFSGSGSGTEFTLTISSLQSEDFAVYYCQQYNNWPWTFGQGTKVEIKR
notes: Fab
B17: anti-BCMA-PP02-C4 FAB (Fab, V domains shown)
VH: EVQLLESGGGLVQPGGSLRLSCAASGFTFTAYDMSWVRQAPGKGLEWVSAISGFGGDTLYADSVKGRFTISRDNSKNTLYLQMNSLRAEDTAVYYCARIGYYYLDSAFDYWGQGTLVTVSS
VL: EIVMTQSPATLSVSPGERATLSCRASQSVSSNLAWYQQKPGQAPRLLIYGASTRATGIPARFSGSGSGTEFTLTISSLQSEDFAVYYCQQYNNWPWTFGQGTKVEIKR
notes: Fab
B18: anti-BCMA-PP03-C4 FAB (Fab, V domains shown)
VH: B17 VH
VL: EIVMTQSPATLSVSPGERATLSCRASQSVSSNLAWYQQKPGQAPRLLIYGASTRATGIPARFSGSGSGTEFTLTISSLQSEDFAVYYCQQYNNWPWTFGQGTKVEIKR
notes: Fab
B19: anti-BCMA-PP02-B4 FAB (Fab, V domains shown)
VH: B17 VH with T30S, A31N, G53V, F54S, G56D, D57F, L59Q, I99V, Y103L, Y110I
VL: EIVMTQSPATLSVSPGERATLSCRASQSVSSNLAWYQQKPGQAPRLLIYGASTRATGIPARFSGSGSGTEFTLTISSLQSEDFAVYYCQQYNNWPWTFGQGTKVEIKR
notes: Fab
B20: Anti-CD38-E2-UCP02-D6 FAB (Fab, V domains shown)
VH: QVQLVQSGAEVKKPGSSVKVSCKASGGSFSNYAIGWVRQAPGQGLEWMGRIIPRLDAEHYAQKFQGRVTITADESTSTAYMELSSLRSEDTAVYYCARGLGYYLYSSYYFDIWGQGTLVTVSS
VL: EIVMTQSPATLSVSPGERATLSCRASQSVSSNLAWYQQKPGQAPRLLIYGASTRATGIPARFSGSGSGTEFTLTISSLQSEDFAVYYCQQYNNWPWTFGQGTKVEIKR
notes: Fab
B21: Anti-CD38-E2-UCP02-G8 FAB (Fab, V domains shown)
VH: B20 VH with R54A, D56G, A57G, E58V
VL: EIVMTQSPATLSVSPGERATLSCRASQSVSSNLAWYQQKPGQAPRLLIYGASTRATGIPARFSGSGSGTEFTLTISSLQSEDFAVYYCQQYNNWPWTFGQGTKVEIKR
notes: Fab
B22: Anti-CD38-E2-UCP02-F8 FAB (Fab, V domains shown)
VH: B20 VH with R54S, E58G
VL: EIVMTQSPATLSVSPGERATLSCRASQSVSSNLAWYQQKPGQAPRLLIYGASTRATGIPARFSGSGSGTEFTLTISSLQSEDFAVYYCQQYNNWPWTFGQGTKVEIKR
notes: Fab
B23: Anti-CD38-E2-UCP02-F3 FAB (Fab, V domains shown)
VH: B20 VH with R54V, E58A
VL: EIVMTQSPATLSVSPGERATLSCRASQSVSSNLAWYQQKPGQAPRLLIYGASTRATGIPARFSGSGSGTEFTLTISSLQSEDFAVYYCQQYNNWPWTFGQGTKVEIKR
notes: Fab
B24: Anti-CD38-E2-UCP02-E7 FAB (Fab, V domains shown)
VH: B20 VH with R54A, D56A, E58T
VL: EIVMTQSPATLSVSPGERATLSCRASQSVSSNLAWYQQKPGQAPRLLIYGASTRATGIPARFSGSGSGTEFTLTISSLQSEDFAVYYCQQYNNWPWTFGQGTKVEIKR
notes: Fab
B25: Anti-CD38-B3-PP11-A2 FAB (Fab, V domains shown)
VH: QVQLVQSGAEVKKPGSSVKVSCKASGQTTPMYSISWVRQAPGQGLEWMGRIIPTGANANYAQKFQGRVTITADESTSTAYMELSSLRSEDTAVYYCARSWPSLGSGWFDIWGQGTLVTVSS
VL: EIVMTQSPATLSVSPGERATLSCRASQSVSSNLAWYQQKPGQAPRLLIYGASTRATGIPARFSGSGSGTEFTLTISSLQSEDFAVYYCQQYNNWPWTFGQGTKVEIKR
notes: Fab
B26: Anti-CD38-B3-PP11-D1a FAB (Fab, V domains shown)
VH: B25 VH with Q27M, T28Q, P30R, M31W
VL: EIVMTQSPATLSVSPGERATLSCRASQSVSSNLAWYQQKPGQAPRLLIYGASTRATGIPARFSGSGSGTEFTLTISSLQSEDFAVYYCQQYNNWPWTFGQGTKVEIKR
notes: Fab
B27: Anti-CD38-B3-PP11-E11 FAB (Fab, V domains shown)
VH: B25 VH with Q27G, T28D, T29F, P30T, M31L, L103Y, S105K
VL: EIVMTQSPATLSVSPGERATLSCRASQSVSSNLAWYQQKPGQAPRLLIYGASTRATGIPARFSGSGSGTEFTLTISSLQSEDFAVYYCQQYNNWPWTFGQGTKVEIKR
notes: Fab
B28: Anti-CD38-B3-PP11-H1a FAB (Fab, V domains shown)
VH: B25 VH with T28N, T29E, P30R
VL: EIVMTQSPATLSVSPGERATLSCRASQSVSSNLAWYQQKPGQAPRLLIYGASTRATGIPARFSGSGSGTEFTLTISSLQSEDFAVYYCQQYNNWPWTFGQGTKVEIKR
notes: Fab
B29: Anti-CD38-B3-PP11-E1 FAB (Fab, V domains shown)
VH: B25 VH with T28H, T29K, P30R, M31V
VL: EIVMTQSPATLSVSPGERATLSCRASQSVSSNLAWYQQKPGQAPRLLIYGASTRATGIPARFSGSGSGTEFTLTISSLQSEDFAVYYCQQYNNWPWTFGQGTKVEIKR
notes: Fab
B30: Anti-CD38-B3-PP11-D11a FAB (Fab, V domains shown)
VH: B25 VH with Q27G, T28D, T29F, P30T, M31L, S102I, S105N
VL: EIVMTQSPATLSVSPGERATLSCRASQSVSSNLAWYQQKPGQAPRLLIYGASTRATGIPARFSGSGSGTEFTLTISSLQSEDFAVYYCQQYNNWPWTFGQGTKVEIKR
notes: Fab
B31: Anti-CD38-B3-PP11-D1b FAB (Fab, V domains shown)
VH: B25 VH with Q27I, T28Q, P30R, M31W
VL: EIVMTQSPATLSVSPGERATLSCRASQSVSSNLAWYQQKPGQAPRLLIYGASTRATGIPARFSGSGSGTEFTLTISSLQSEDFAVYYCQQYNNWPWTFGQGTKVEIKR
notes: Fab
B32: Anti-CD38-B3-PP11-H10 FAB (Fab, V domains shown)
VH: B25 VH with Q27G, T28D, T29F, P30T, M31L, S102H, L103Y
VL: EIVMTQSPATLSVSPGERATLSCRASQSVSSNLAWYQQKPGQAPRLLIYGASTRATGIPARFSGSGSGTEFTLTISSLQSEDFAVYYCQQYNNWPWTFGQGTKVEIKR
notes: Fab
B33: Anti-CD38-B3-PP11-C11 FAB (Fab, V domains shown)
VH: B25 VH with Q27G, T28D, T29F, P30T, M31L, W100T, S102T, L103Y
VL: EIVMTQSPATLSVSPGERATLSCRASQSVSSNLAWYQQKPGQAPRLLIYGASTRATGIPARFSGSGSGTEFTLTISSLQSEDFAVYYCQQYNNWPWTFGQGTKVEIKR
notes: Fab; also called anti-CD38-B3-C11; B3-C11

molecular target: T1, human BCMA on cells (NCI-H929, NCI-H929 …); assay: flow cytometry, NCI-H929 cells, one-site fit

Binder	Kd
B1	6.58 nM
B2	5.53 nM
B3	4.86 nM
B4	5.13 nM
B5	5.49 nM
B6	3.72 nM
B7	5.78 nM
B8	6.83 nM
B9	6.37 nM
B10	5.22 nM

molecular target: T2, recombinant human BCMA protein …; assay: SPR, Fab as analyte, immobilised human BCMA, 1:1 Langmuir

Binder	Kd
B11	318 nM
B12	145 nM
B13	214 nM
B14	18 nM
B15	15 nM
B16	10 nM
B17	608 nM
B18	549 nM
B19	648 nM

molecular target: T3, Biotinylated Human BCMA/TNFRSF17 …; assay: SPR, Fab as analyte, biotin-captured human BCMA

Binder	Kd
B1	0.342 nM
B2	0.22 nM
B3	0.061 nM
B4	0.169 nM
B5	0.086 nM
B6	0.182 nM
B7	0.33 nM
B8	0.3 nM
B9	0.33 nM
B10	0.176 nM

molecular target: T4, recombinant cynomolgus monkey CD38-ECD-C-his protein (cynomolgus monkey, UniProt Q5VAN0 45-301); assay: SPR, Fab as analyte, captured cynomolgus CD38-his
T4 construct: made in house; Q5VAN0 residues 43-301 (residue 44 deleted) with C-terminal 6-His; also called cynomolgus monkey CD38-C-His; recombinant cynomolgus monkey CD38 protein

Binder	Kd
B20	1.1 nM
B21	4.2 nM
B22	24.5 nM
B23	2.4 nM
B24	1.8 nM
B25	62.5 nM
B26	9.6 nM
B27	8.9 nM
B28	17.9 nM
B29	26.3 nM
B30	17.3 nM
B31	14.6 nM
B32	22.7 nM
B33	25 nM

molecular target: T5, Biotinylated Human CD38 Protein, Avitag, His Tag (Acrobiosystems CD8-H82E7) (human, UniProt P28907 43-300, biotinylated); assay: SPR, Fab as analyte, biotin-captured human CD38
T5 construct: bought protein; also called biotinylated recombinant human CD38 protein; human CD38-avi-his

Binder	Kd
B20	4.9 nM
B21	5.2 nM
B22	17.6 nM
B23	3.5 nM
B24	2.2 nM
B25	38.4 nM
B26	10 nM
B27	2 nM
B28	15.3 nM
B29	10.5 nM
B30	8.2 nM
B31	5.8 nM
B32	6.2 nM
B33	5.4 nM

molecular target: T6, biotinylated recombinant cynomolgus monkey BCMA Fc fusion protein (Acrobiosystems BCA-C82F4) (cynomolgus monkey, UniProt A0A2K5UD97 1-53); assay: SPR, Fab as analyte, biotin-captured cynomolgus BCMA-Fc
T6 construct: bought protein; not shown: Fc of the bought fusion protein, not described
T6 sequence (A0A2K5UD97 entry or part of it): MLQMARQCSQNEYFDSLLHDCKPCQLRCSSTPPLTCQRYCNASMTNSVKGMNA

Binder	Kd
B1	0.97 nM
B2	0.964 nM
B3	0.237 nM
B4	0.615 nM
B5	0.857 nM
B6	0.51 nM
B7	2.26 nM
B8	1.19 nM
B9	0.915 nM
B10	0.728 nM

molecular target: T1, human BCMA on cells (NCI-H929, NCI-H929 …); assay: flow cytometry, NCI-H929 cells

Binder	Maximum binding (RFI)
B1	36300 RFI
B2	44700 RFI
B3	39400 RFI
B4	43200 RFI
B5	43500 RFI
B6	34700 RFI
B7	46500 RFI
B8	38600 RFI
B9	40200 RFI
B10	40500 RFI

molecular target: recombinant cynomolgus monkey BCMA protein (Acrobiosystems BCA-C52H7) (cynomolgus monkey, UniProt A0A2K5UD97 1-53); assay: SPR, Fab as analyte, immobilised cynomolgus BCMA, 1:1 Langmuir
Sequence (A0A2K5UD97 entry or part of it): as above

Binder	Kd
B12	598 nM
B14	52 nM
B15	40 nM
B16	236 nM
B17	114 nM
B18	109 nM
B19	58 nM

Source: patent publication US20240132615A1 (ICHNOS SCIENCES, published 2024)
